According to the DeepSol protein solubility set:

Assay: soluble on expression in E. coli; label from the status in PepcDB or PDB records

Sequence	soluble on expression in E. coli
MEYGIVYLLTNPVMPGLVKIGMTTQEGIDKRMKELYTTGVPIPFECKFACKVKKSDCLKIEKALHKAFDPQRINQNREFFRINVEQAQAILELFHHEDVTEEVTDEIQNDLTDEDKAASTKAQAKRPPLNFYEMGLQKGDILIWKDDPSISVTVLSERKVCYEGEETSISALSAKLKGYKVKHIQPTPHWFFNDRSLSEIYDETYPFEE	not soluble
SLPIDAVLPALRQALTTRHEAVLEAPPGAGKTTRVPLALLEETWLAGQTILMLEPRRLAARAAAERLASELGEKVGETVGYRIRLESCVGPKTRIEVVTEGILTRCLQDDPALEGVGLLIFDEFHVLPFA	not soluble
MAHHHHHHMKAGKSGHRIYVGNIPGSMSKQEIIKAFEEFGKITEIDIKYNRNTNGTNYAFIEYESYKSAEKTIENKNGQKLKGYMLKVEYSIDKKNKEGGDLIALGGREAVSKGLLTNVRLPKNRSHYRVVVKNFPRKKIKLDGIKTFLMKAGKVIYTQLEDEITIAEYDCREGMLRAVNTLDRTMFNSTRKVYVRVLKDLPYDDSDADDSAQGCR	not soluble
MAQASPPRPERVLGASSPEARPAQEALLLPTGVFQVAEKMEKRTCALCPKDVEYNVLYFAQSENIAAHENCLLYSSGLVECEDQDPLNPDRSFDVESVKKEIQRGRKLKCKFCHKRGATVGCDLKNCNKNYHFFCAKKDDAVPQSDGVRGIYKLLCQQHAQFPIIAQSAKFSGVKRKRGRKKPLSGNHVQPPETMKCNTFIRQVKEEHGRHTDATVKVPFLKKCKEAGLLNYLLEEILDKVHSIPEKLMDETTSESDYEEIGSALFDCRLFEDTFVNFQAAIEKKIHASQQRWQQLKEEIELLQDLKQTLCSFQENRDLMSSSTSISSLSY	not soluble
MAPPTFADLGKSAKDLFNKGYNFGFLKIDSTTRAGDNKEVEFKSAASHNIGSGKLGGNLDVKYKIPQYGITLTEKWNTENQLGTVIEVNEQFGRGLKVTLDSLYAPHAGKRSGKVKLDWALPTARVTADVGVTSAPVINAAGVFSRDGWLIGAAATFDSSSNKLAATSLAFGHSTPQYTLHSFVINSTDFGASLYHKVASNVEVGTQLGWKVGGNGADYALATKYAPSRDLTVRAKVNSSSQVAVAATHSLSPALKLTLSTQFNLAANDAHKFGLGLEFDPSN	not soluble
MIWRLIMLIDRFGRPVTNLRISLTKECNLSCFYCHREGQLDGERFMTPEEIERIVRVASRLGIKKVKLTGGEPTIRKDILEIIRRLKPYVVDLSLTTNGTTMYVLAEKLKEAGLDRVNISLDTLDRKKYKMITGFNVLDEVIKGIKKATKLFYPVKLNMVVMKGVNDDEIWDMMRFAGEVNAILQLIELEVPREMENSQFFKDFFYPLKPLEEKFEKLAVKVKERRMHRRRKYFIPIDGKIVEVEVVRSMHNTVFCMNCTRLRLTADGYLKTCLLRRDDLIDILGPLRNGASDADLIEIFKRAVLLRRPYWTSNSSLEHHHHHH	soluble
VAVVLDRQGKVQTVNGLFETELSYSQSEIAGRSLSEMSPPELSGDTHQKRALAAIRDGKHFSGTLRLVSKTGARVWLRTVVVPFKNETGGIEQITLYSSVLT	not soluble
SGLVPGRHMMITMDDIIREGNPTLREVAKEVSLPLSEEDISLGKEMLEFLKNSQDPIKAEELHLRGGVGLAAPQLDISKRIIAVHVPSPDPEADGPSLSTVMYNPKILSHSVQDACLGEGEGCLSVDREVPGYVVRHAKITVSYYDMNGEKHKIRLKNYESIVVQHEIDHINGVMFYDHINDQNPFALKEGVLVIE	soluble
MSLNLGDLTNFVEKPLAAVSNIVNTPNSAGRYRPFYLRNLLDAVQGRNLNDAVKGKVVLITGGSSGIGAAAAKKIAEAGGTVVLVARTLENLENVANDIRAIRGNGGTAHVYPCDLSDMDAIAVMADQVLGDLGGVDILINNAGRSIRRSLELSYDRIHDYQRTMQLNYLGAVQLILKFIPGMRERHFGHIVNVSSVGVQTRAPRFGAYIASKAALDSLCDALQAETVHDNVRFTTVHMALVRTPMISPTTIYDKFPTLTPDQAAGVITDAIVHRPRRASSPFGQFAAVADAVNPAVMDRVRNRAFNMFGDSSAAKGSESQTDTSELDKRSETFVRATRGIHWEGHHHHHH	not soluble
MNNAHEENISSVTGFKSTSGSPAIGSSLPGRSGEGRSSSSSSGSTALLAVVNSTLKAIFSNTLDSIFHMVCTDSDKRLSSEFHCLQSMFNLQLFVNLGCPLS	soluble
MGSDKIHHHHHHMSTVESALTRRIMGIETEYGLTFVDGDSKKLRPDEIARRMFRPIVEKYSSSNIFIPNGSRLYLDVGSHPEYATAECDNLTQLINFEKAGDVIADRMAVDAEESLAKEDIAGQVYLFKNNVDSVGNSYGCHENYLVGRSMPLKALGKRLMPFLITRQLICGAGRIHHPNPLDKGESFPLGYCISQRSDHVWEGVSSATTRSRPIINTRDEPHADSHSYRRLHVIVGDANMAEPSIALKVGSTLLVLEMIEADFGLPSLELANDIASIREISRDATGSTLLSLKDGTTMTALQIQQVVFEHASKWLEQRPEPEFSGTSNTEMARVLDLWGRMLKAIESGDFSEVDTEIDWVIKKKLIDRFIQRGNLGLDDPKLAQVDLTYHDIRPGRGLFSVLQSRGMIKRWTTDEAILAAVDTAPDTTRAHLRGRILKAADTLGVPVTVDWMRHKVNRPEPQSVELGDPFSAVNSEVDQLIEYMTVHAESYRS	not soluble
MSLSDLFTTIKGQVTGKNVRIVLPEGTDERIVGAAARLQKENIVKPILLGNKAEIEAKAKEIGVSVEGIAIHEPATDPLFDELVAAFVERRKGKATEEAARKMLVDPNYFGTMLVYTGKAEGLVSGAAHSTGDTVRPALQIIKTKPGVSKVAGAMIMVRGEERYLFSDVAINIAPVAADLAENAIVSAETAEIFGIDPRVAMLSFSTKGSAKSDETEKVVEATALAKEKAPELTLDGEFQFDAAFVPTVAEKKAPGSVIKGDANVFIFPSLEAGNIGYKIAQRLGNFEAVGPILQGLNAPVNDLSRGCNTDDVYNLTLITAAQAVNKEGHHHHHH	soluble
MTATEPTEKILPSPDYVQSLARGLAVIRCFDHRNQRRTLSDVARATDLTRATARRFLLTLVELGYVATDGSAFWLTPRVLELGYSYLSSLSLPEVAQPHLEKLSHKVHESSSVSILDGADIVYVARVPVSRIMTVGITIGTRLPAYATSMGRVLLAGLPDDELDAYLEKLDIQRLTERTITARDELKAAILAVRADGICVLDQELEAGLRSMAAPIRGASGLTVAAVNISTPAARYSLEDLHSDLIPSLRVTATDIEQDLATVNR	soluble
IYGYVEKATLIDQNLTLSAKLDTGAKSASLHAVNITEIEKKGIPYLRFTVPTKTGDYSFEGEYVGKVKIKVRSSETNPGLLRTTPIKRPVVLLNIKLGDKVRTIKVNLTNRKRFLYPLLLGRDAIIDFNGAVDPALTFTTKSK	soluble
MERGVDNWKVDCKCGTKDDDGERMLACDGCGVWHHTRCIGINNADALPSKFLCFRCIEL	soluble
MGHHHHHHSHALQVDISDALSERDKVKFTVHTKSSLPNFKQNEFSVVRQHEEFIWLHDSFVENEDYAGYIIPPAPPRPDFDASREKLQKLGEGEGSMTKEEFTKMKQELEAEYLAIFKKTVAMHEVFLCRVAAHPILRRDLNFHVFLEYNQDLSVRGKNKKEKLEDFFKNMVKSADGVIVSGVKDVDDFFEHERTFLLEYHNRVKDASAKSDRMTRSHKSAADDYNRIGSSLYALGT	not soluble
MKIGFIGAGKMAQALARGLINSGRITADNIIASSPKRDEVFLDQCKALGLNTTHDNAEVVQKSDVVFLAVKPVHVSKVASEIAPALSKEHLVVSIALGITIRNIESLLPTKSRVVRVMPNTPSVVRAGASAFAMGSACRDGDAETVEKLLSTVGFAVEVPEIHIDPVTGLSGSGPSYMFAVIEGLADGGVKVGLPRDLALKLAAYTLLGAAKMVLETGIHPAQLKDDVQSPAGSSVYGMHKLESGGLKGVLMDAVEAATNRSRATGDKALPRDFRNTEM	not soluble
SSTKVPIYLKRGSRKGKKEKLRDLLSSDMISPPLGDFRHTIHIGSGGGDDMFGDISFLQGKFHLLPGTAVEEAEEDGSFDLPFQFTRTTTVCGRELPDGLSPLLKNAISLPVIGGPQALTLPTAQAPPKPPRLHLESPQPSPQPSPQGAGNVDVWRIPEAGSPHNGMSPEPEAEEPFLSHASSLLSLHVDLGPSILDDVLQIMDHDLGRVQIPT	soluble
MEHRDIVIVGGGMVGSALGAALSGKGLSVSVLEREAPAPFAPEQAPDLRVSAISPASAAFLQTIGAWGQALAMRAAPYRRMQVWERDEAAGTLFDAAEAGVPELGHIVENRVVQLAATEALLAKGDIDYRCPAVVSDIVYRPQASQLTLSDGSRLQARLLIAADGARSQVRDAAGIGVTGWDYPMHALVLSCRIDGGQQDITWQRFTPDGPQAFLPLSGDAASLVWYHRPEEVKRLLTLGDDELIAAVSQAFPRKLPGIRELAARGSFGLTRRHAQCYVKDGVALAGDAAHTIHPLAGQGVNLGFQDAAMLARTILDAHAKGEDWASGKTLVRYQRARKPANLAMQAGMDAFCYGFANDIGPLRLLRGLGLRLADKAGPLKREAIRYALGLRALEHHHHHH	not soluble
MSTDLQHIRIGLTNNHPCSYLPERQERVAVALDAELHTEQNYQLLMANGFRRSGDTIYKPHCERCHACQPIRISIPDFVLSRSQKRLLSKAKSLRWEMKTEMDAEWFELYSRYICKRHKNGTMYPPKRDEFSRFAQTTWLTTLFLHIYDESNQLLGVAVTDVMAQCSSAFYTFFEPDYPLSLGTLAVLYQVNYCQQNNEQWLYLGYQIDECPAMNYKTRFQRHQRLVNQRWQGLEHHHHHH	soluble
MMLSRAKPAVGGESPHTDKRKKKGRKIPKLEDLLSQRDFTGAITLLEFKRHVGEQEDDTNLWIGYCAFHLGDYKRALEEYENATKEENCNPEVWVNLACTYFFLGMYKQAEAAGFKAPKSRLQNRLLFHLAHKFNDEKKLMNFHQNLQDIKEDQLSLASNSEIHLPLPPECWD	not soluble
RPPKWTGMDVWAAAICFNTVEAAKKNLPKPESWADLTKPVYKGQIVMPHPASSGTGYLDVSAWLQTLGEKKGWDYMDKLHANMAQYVHSGSKPCKMAAAGEYPIGISFEYRGAQLKEKGAPIDLIYPKEGLGWDLEATAIIKGTKNLEAARKLADFSVSLPAMKLYEQNYAVLAMPGV	not soluble
MTAVVNIAAYKFVSIANPADLREPMLEQAGQRQLKGTVLLAPEGINLFLAGAADAIEGFLRWLRADARFADLQAKYSESARMPFRKLLVKVKREIIRMDHPAIRPEAGRAPAVDAATLRRWLAQGRDDQGRELVMLDTRNAFEVEVGTFRGALDWRIERFTQFPQAVRDNQAALAGKTVVSFCTGGIRCEKAAIYMAEAGIEHVYQLEGGILKYFEETDGAGFDGACFVFDERVALDAALAPQALEHHHHHH	soluble
NNNRAPKEPTDPVTLIFTDIESSTALWAAHPDLMPDAVAAHHRMVRSLIGRYKCYEVKTVGDSFMIASKSPFAAVQLAQELQLCFLHHDWGTNALDDSYREFEEQRAEGECEYTPPTAHMDPEVYSRLWNGLRVRVGIHTGLCDIRHDEVTKGYDYYGRTPNMAARTESVANGGQVLMTHAAYMSLSAEDRKQIDVTALGDVALRGVSDPVKMYQLNTVPSRNFAALRLDREYFD	soluble
